One molecule from article PMC9491713 can be followed below.

This assay concerns the target cSFB-RBPJ protein purified from 293F cells, Q06330. The experiment in a line: BLI. The following applies: remark: other sources report otherwise.

B1: FLAG-FBXO42 protein purified from 293F cells, Q6P3S6 1-717 (natural protein)
chain: MASSSDSEDDSFMAVDQEETVLEGTMDQDEEPHPVLEAEETRHNRSMSELPEEVLEYILSFLSPYQEHKTAALVCKQWYRLIKGVAHQCYHGFMKAVQEGNIQWESRTYPYPGTPITQRFSHSACYYDANQSMYVFGGCTQSSCNAAFNDLWRLDLNSKEWIRPLASGSYPSPKAGATLVVYKDLLVLFGGWTRPSPYPLHQPERFFDEIHTYSPSKNWWNCIVTTHGPPPMAGHSSCVIDDKMIVFGGSLGSRQMSNDVWVLDLEQWAWSKPNISGPSPHPRGGQSQIVIDDATILILGGCGGPNALFKDAWLLHMHSGPWAWQPLKVENEEHGAPELWCHPACRVGQCVVVFSQAPSGRAPLSPSLNSRPSPISATPPALVPETREYRSQSPVRSMDEAPCVNGRWGTLRPRAQRQTPSGSREGSLSPARGDGSPILNGGSLSPGTAAVGGSSLDSPVQAISPSTPSAPEGYDLKIGLSLAPRRGSLPDQKDLRLGSIDLNWDLKPASSSNPMDGMDNRTVGGSMRHPPEQTNGVHTPPHVASALAGAVSPGALRRSLEAIKAMSSKGPSASAALSPPLGSSPGSPGSQSLSSGETVPIPRPGPAQGDGHSLPPIARRLGHHPPQSLNVGKPLYQSMNCKPMQMYVLDIKDTKEKGRVKWKVFNSSSVVGPPETSLHTVVQGRGELIIFGGLMDKKQNVKYYPKTNALYFVRAKR
In general, Kd refers to the constant that tells how readily two partners part at equilibrium. Higher therefore signals weaker binding. Consider B1, for which the Kd amounted to 47 nM.
